{"source": "the RNAGym collection of RNA variant scans (doi:10.1073/pnas.2313332121)", "parents": {"B1": {"name": "TPR t1 (parent)", "chain": "GACCAAUCUGCCCUCAGAGCUCGAGAACAUCUUCGGAUGCAGAGGAGGCAGGCUUCGGUGGCGCGAUAGCGCCAACGUCCUCAACCUCCAAUGCAUCCCACCACAUGAUGAUGCCUGAAGAGCCUUGGUUUUUUG"}}}
{"variants_of": "B1", "experiment": "polymerase ribozyme fitness, log enrichment relative to wild type (log ratio); higher = more active; in vitro selection for triplet polymerase activity", "procedure,_shortened": "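Streptavidin-bead capture of gel-excised extended constructs, followed by RT-PCR, closed a single triplicate in vitro selection round. That round began by annealing PCR-built, transcribed mutant libraries of each subunit of a heterodimeric triplet polymerase ribozyme with a biotinylated primer, the partner subunit and triplets, then incubating them frozen at −7 °C. After Illumina sequencing of inputs and outputs, genotypes needed ≥10 input reads and ≥1 read per output. Fitness is the base-2 logarithm of genotype enrichment over wild-type enrichment, using inverse-variance-weighted replicate averages.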"}
{"variant": "GACCAAUGUGCCCUCAGAGCUCGAGAACAUCUUCGGAUGCAGAGGAGGCAGGCUUCGGGGGCGCGAUAGCGCCAACGUCCUUAAACUCCAAUGCAUCCCACCACAUGAUGAUGCCUGAAGAGCCUCGGUUUUUUG", "polymerase ribozyme fitness (log ratio)": -1.16}
{"variant": "GACCAAUUUGCACUCAGAGCUCGAGAACAUCUUCGGAUGCAGAGGAGGCAGGCUUCGGUGACGCGAUAGCGCCAACGUUCUCAACCUCCAAUGCAUCCCACCACAUGAUGAUGCCUGAAGAGCCUUGGUUUUUUG", "polymerase ribozyme fitness (log ratio)": 0.0887}
{"variant": "GACCAAUGUGCCCUCAGAGCUCGAGAACAUCUUCGGAUGCAGAGGAGGCAGGCUUCGGUGGCGCGAUAGCGCCAACGUCCUCAACCUCCAAUGCAACCCACCACAUGAUGAUGCCUGAAGAGCCUUGGUUUUUUG", "polymerase ribozyme fitness (log ratio)": 0.0383}
{"variant": "GACCAAUGUGCCCUCAGAGCUCGAGAACAUCUUCGGACGCAAAGGAGGCAGGCUUUGGUGGCGCGAUAGCGCCAACGUCCUCAACCUCCAAUGCAUCCCACCACAUGAUGAUGCCUGAAGAGCAUUGGUUUUUUG", "polymerase ribozyme fitness (log ratio)": -1.34}
{"variant": "GACCAAUUUGCCCUCAGAGCUCGAGAACGUCUUCGGAUGCAGAGGAGGCAGGCUUCGGUGGCGCGAUAGCGCCAACGUCCUCAACCUCCAAUGCAUCCCACCACAUGAUGAAGCCUGAAGAGCCUUGGUUUUUUG", "polymerase ribozyme fitness (log ratio)": -0.107}
{"variant": "GACCAAUUUGCCCUCAGAGCUCGAGAACUUCUUCGGAUGCAGAGGAGGCAGGCUUCGGUGGUGCGAUAGCGCCAACGUCCUCCACCUGCAAUGCAUCCCACCACAUGAUGAUGCCUGAGGAGCCUUGGUUUUUUG", "polymerase ribozyme fitness (log ratio)": -2.75}
{"variant": "GACCAAUUUGGCCUCAGAGCUCGAGAACAUCUUCGGAUGCAGAGGAGCCAGGCUUUGGUGGCGCGAUAGCGCCAACGUCCUCAACCUCUAAUGCAUCCCACCACAUGAUGAUGCCUUAAGAGCCUUGGUUUUUUG", "polymerase ribozyme fitness (log ratio)": -1.01}
{"variant": "GACCAAUUUGCCCUUAGAGCUCGAGAACAUCUUCGGAUGCAGAGGAGGCAGGCUUCGGUGGCGCGAUAGCGGCAACGUCCUCAACCUCCAAUGCAUCCCACCACAUGAUGAUGCCUGAAUAGCCUUGGUUUUUUG", "polymerase ribozyme fitness (log ratio)": 1.39}
{"variant": "GACCAAUUUGCCCUCAGUGCUCGAGAACAUCUUCGGAUGCAGAGGAGGCAGGUUUCGGUGGCGCGAUAGCGCCAACGUGCUCAACCUCCAAUCCAUCCCACCACAUGAUGAUGCCUGAAGAGCCUUGGUGUUUUG", "polymerase ribozyme fitness (log ratio)": -4.48}
{"variant": "GACCAAUUUGCACUCAGAGCUCGAGAACAUCUUCUGAUGCAGAGCAGGCAGGGUUCGGUGGCGCGAUAGCGCCAACGUCCUCAACCUCCAAUGCAUCCCACCAUAUGAUGAUGCCUGAAGAGCCUUGGUUUUUUG", "polymerase ribozyme fitness (log ratio)": -6.79}
{"variant": "GACCAAUUUGCACUCAGAUCUCGAGAACAUCUUCGGAUGCAGAGGAGGCAGGCUUCGGCGGCGCGAUAGCGCCAACGUCCUCAACCUCCAAUGCAUCCCACCACAUGAUGAUGCCUGAAAAGCCUUGGUUUUUUG", "polymerase ribozyme fitness (log ratio)": -1.69}
{"variant": "GACCAAUUUGCCCUCAGAGCUCGAGUACAUCUUCGGAUGCAGAGGAGGCAGGCUUCGGUGGCGCGAUAGCGCCAACGUCCUCCACCUCCAAUGCAUCCCACCACAUGAUGAUGCCUGAAGAGCCUUCGUUUUAUG", "polymerase ribozyme fitness (log ratio)": -5.14}
{"variant": "GACCAAUUUGCCCUCAGAGCUCGAGAACAUCUUCGGAUGCAGAGGAGGCUGGCUUCGGUGGCGCGAUAGCGCCAACGUCCUCAACCUCCAAUGCAUCCCACCAUAUGAUGAUGCCUGAAGAGUCUUGGUUUUUUG", "polymerase ribozyme fitness (log ratio)": 1.14}
{"variant": "GACCAAUUUGCCCUCAGAGCUCGAGAACAUCUUCGGAUGCAGAGGAGGCAGGCUUCGGUGGCGCGAUAGCGCCAACGUCCUCAACCUCCAAUGCAUCCCACCCCAUGAUGAUGCCUGAAGAGCCUUGGUUUUUUG", "polymerase ribozyme fitness (log ratio)": -4.8}
{"variant": "GACCAAUGUGCCCUCAGAGCUCGAGAACAUCUUCGGAUGCAGAGGAGGCAGGCGUCGGUGGCGUGAUAGCGCCAACGUCCUCAACCUCGAAUGCAUCCCACCACAUGAUGAUGCCUGAAGAGCCUUGGUUUUUUG", "polymerase ribozyme fitness (log ratio)": -4.42}
{"variant": "GACCAAUUUGCCCUCAGAGCUCGAGAACAUCUUCGGAUGCAGGGGAGGCAGGCUUCGGUGGCGCGAUAGCGCCAACGUCCUCAACCUCGAAUGCAUCUCACCACAUGAUGAUGCCUGAAGAGCCUUGGUUUUUUU", "polymerase ribozyme fitness (log ratio)": -4.02}
{"variant": "GACCAAUUUGCCCUCAGAGCUCGAGAACAUCUUCGGAUGCAGCGGAGGCAGGCUUCGGUGGCGCGAUAGCGCCAACGUCCUCAACCUCCAAUGUAUCCCACCACAUGAUGAUGCCUGAAGAGCCUUGGUAUUUUG", "polymerase ribozyme fitness (log ratio)": -2.21}
{"variant": "GACCAAUUUGCCCUCAGAGCUCGAGAACAUCUUCGGAUGCAGAGGAGGCAGGCUUCGGUGGCGCGAUAGCGCCAACGUCCUCAACCUCCAAUGCAUCCCACCACAUGAUGCUGCCUGAAGAGCCUUGGUUUUUUG", "polymerase ribozyme fitness (log ratio)": 0.776}
{"variant": "GACCAAUGUGCCCUCAGAGCUCGAGAACAUCUUCGGAUGCAGAGGAGGCAGGCUUCGGUGGCGCGAUAGCGCCAACGUCCUCAACCACCAAUGCAUCCCACCACAUGAUGAUGCCUGAAGAGCCUUGGUUUUUUG", "polymerase ribozyme fitness (log ratio)": 0.833}
{"variant": "GACCAAUUUGCCCUCAGUGCUCGAGAACAUCUUCGGAUGCAGAGGAGGCAGGCUUCGGUGGCGCGAUAGCGCCAACGUCCUCAACCUCCAAUGCAUCCCACCACAUGAUGAUGCCUGAAGAGCCUUGGUUUUUUG", "polymerase ribozyme fitness (log ratio)": -1.03}
{"variant": "GACCAAUUUGCCCUAAGAGCUCGAGAACAUCUUCGGAUGCAGAGGAGGCAGGCUUCGGUGGCGCGAUAGCGCCAACGUCCUCAACCUCCAAUGCAUCCCACCACAUGAUGAUGCCUGAGGAGCCUUGGUUUUUUG", "polymerase ribozyme fitness (log ratio)": 0.435}
